In US20170052184A1 (published 2017):
Residue numbers refer to the chain shown, from its start.

T1: HCV Core1-169 (hepatitis C virus (HCV-1), UniProt P26664 1-169)
T1 sequence: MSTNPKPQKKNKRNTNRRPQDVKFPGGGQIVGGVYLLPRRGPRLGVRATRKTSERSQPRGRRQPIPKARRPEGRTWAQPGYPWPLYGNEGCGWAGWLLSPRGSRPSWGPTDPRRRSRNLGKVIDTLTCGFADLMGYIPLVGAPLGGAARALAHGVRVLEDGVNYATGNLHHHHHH

B1: HCV 208B-1024 (antibody, V domains shown)
VH: EVQLVESGGDLVKPGGSLKLSCAASGFTFSNYGMSWVRQTPDKRLEWVATISSGGSYSYYPDSVKGRFTISRDNAKNILYLQMSSLKSEDTAMYYCASLYYGYGDYWGQGTAFTVSS
VL: DVLMTQTPLSLPVSLGDQASISCRSSQSIVHSNGNTYLEWYLQKLGQSPKLLIYRVSNRFSGVPDRFSGSGSGTDFTLKISRVEAEDLGVYYCFQGSHVPWTFGGGTKLEIKR
B2: HCV 208A-877 (antibody, V domains shown)
VH: QLQQSGPELVKPGASVKISCKTSGYTFTENAMHWVKQSRGKSLEWIGGVNPNNGDTVYTQKFKGKATLTVAKSSSTAYMELRTMTCEESTVYYCASREPDFFDYWGQGSSVTVSS
VL: QIVLTQSPAIMSVSPGEKVSMTCSASSSVTYMHWYQQKSGTSPKRWIYDTSELASGVPARFSGSGSGTTYSLTISSMEAEDAATYYCQQWSNKPLTFGAGTKLELKR
B3: HCV 208A-207 (antibody, V domains shown)
VH: QGQLQQPGAEFVKPGASLKLSCRASGYTFTSYWIHWVKQRPGQGLEWIGEIDPSDSYINQNQKFRGKATLTVDKSSSTAYMELSGLTSEDSAVYYCARHYYGVLDSWGQGTTLTVSS
VL: DIVLTQSPATLSVTPGDRVSLSCRASQRIYNYLHWYQQKSHESPRLLTKYASQSISGIPSRFSGSGSGTDFILTINSVETEDFGMYFCQQSNSWPLTFGAGTKLELRR
B4: HCV 208A-638 (antibody, V domains shown)
VH: B3 VH with I51V, Q62E, E82Q, S84G, G85S, T112A
VL: QIVLTQSPTIMSASLGERVTMTCTASSSVSSSYLHWFQQKPGSSPKLWIYSTSNLASGVPPRFSGSGSGTSYSLSISSVEAEDVATYYCLQFHRSPWTFGGGAKLEIKR
B5: HCV 208A-134 (antibody, V domains shown)
VH: QGQMQQSGAELAKPGASVKLSCKTSGFTFSSSYISWLKQKPGQSLEWIAWIYAGTGNTNYNQKFTDKAQLTVDTSSSTAYMQLSSLTTEDSAIYYCAISGTGFTYWGQGTLVTVSA
VL: EVLMTQSPLSLPVSLGDQASISCRSSQSLEHTNGNTYLEWFLQRPGQPPKLLIYKVSSRFSGVPDRFSGSGSGTDFTLKISRVEAEDLGVYYCFQGSHVPFTFGSGTKLAIKR
B6: HCV 208A-352 (antibody, V domains shown)
VH: B5 VH with A12V, Y33F, L83F
VL: B1 VL with T5A, S14T, I29L, Y41F, L45P, R55N, W101L, G105S
B7: HCV 208B-281 (antibody, V domains shown)
VH: B5 VH with M4L, A12V, K40R, N57G, L83F, T104I
VL: B1 VL with I29L, S32N, Y41F, L45P, R55K, W101F, G105S
B8: HCV 208A-159 (antibody, V domains shown)
VH: QLQQSGPAQVKPGASVMISCKTSGYTFTENAMHWVKQSHGKSLEWIGGVNPNNGDTIFNQKFKDKAALTVDKSSSTAFMELRSLTSEESTVYYCVRRELDFFDYWGQGTSVTVSS
VL: DIVLTQSPASLAVSLGQRATISCRASQSVSTSRYSYVHWYQQKPGQPPKLLIKYAANLESGVPARFSGSGSGTDFTLNIHPVAEEDAAAYYCQHSWEFPFTFGSGTKLEIKR
B9: HCV 208A-830 (antibody, V domains shown)
VH: EVRLQQPGPEVEKPGASVKISCKTSGYTFTEYAIHWVKQSHGESLEWIGGINPSNGDPIYNQIFKDKATLTVDRSSNTAYMGLRSLTVGDSGVYFCVRRQLDYFDFWGQGASLTVSS
VL: B8 VL with A25S, V37L, A56S, A83G, A87P, A89T
B10: HCV 208B-560 (antibody, V domains shown)
VH: EVQLQQSGPELEKPGASVKISCKTSGYTFTEYAMHWVKQSHGMSLEWIGGINPSNGNAIYNQIFKDKATLTVDRSSSTAYMGLRSLTFGDSGVYFCVRRQLDFFDYWGQGASLTVSS
VL: B8 VL with L4V, V37L, A56S, A83G, A87T, A89T
B11: HCV 208A-557 (antibody, V domains shown)
VH: B5 VH with A12V
VL: B8 VL with V3A, V37M, K49E, A56S, A83G, A87T, A89T, E97D
B12: HCV 208B-556 (antibody, V domains shown)
VH: B8 VH with A8V, Q9L, D64G, A67T, L81F
VL: B8 VL with V37M, A56S, A87T, A89T
B13: HCV 208B-251 (antibody, V domains shown)
VH: B8 VH with A8V, Q9L, M17K, F58Y, D64G, A67T, T90P, Y93F
VL: B8 VL with Q17K, R18K, V37M, Q46H, A56S, A87T
B14: HCV 208A-605 (antibody, V domains shown)
VH: B10 VH with M34I
VL: B8 VL with L4V, V37L, A56S, A83G, A87T, A89T
B15: HCV 208A-741 (antibody, V domains shown)
VH: B8 VH with A8V, Q9L, D64G, A67T
VL: B8 VL with A19T, R24G, Y34F, V37M, A56S, A87T
B16: HCV 208A-334 (antibody, V domains shown)
VH: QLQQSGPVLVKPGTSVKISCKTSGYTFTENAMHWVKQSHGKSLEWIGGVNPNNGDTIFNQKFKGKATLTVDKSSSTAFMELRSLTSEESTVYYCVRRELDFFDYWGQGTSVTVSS
VL: B8 VL with V37M, A56S, A87T, E97G
B17: HCV 208A-222 (antibody, V domains shown)
VH: B10 VH with K19R, M43K, S54N, F103Y
VL: B8 VL with L4V, V37L, A56S, A83G, A87T, A89T

These binders were tested against T1, HCV Core1-169 (assay: SPR sandwich, capture mAb C11-14).
B1 showed an expected percent binding of 12.2%.
For B2, the expected percent binding was 10.7%.
With B3 the expected percent binding was ≤ 1%.
In the case of B4, the expected percent binding is reported as 13.3%.
In the case of B5, the expected percent binding is reported as ≤ 1%.
For B6, the expected percent binding was ≤ 1%.
B7 was tested, and the expected percent binding was ≤ 1%.
Binder B8 has an expected percent binding of 5.5%.
In the case of B9, the expected percent binding is reported as 11.7%.
B10 was tested, and the expected percent binding was 12%.
B11 was tested, and the expected percent binding was 17.6%.
In the case of B12, the expected percent binding is reported as 12.7%.
B13 was tested, and the expected percent binding was 18.2%.
B14 gave an expected percent binding of 15.8%.
Binder B15 has an expected percent binding of 21.2%.
In the case of B16, the expected percent binding is reported as 15.9%.
Work on B17 yielded an expected percent binding of 15%.

What follows are binders tested against T1, HCV Core1-169 (assay: SPR sandwich, capture mAb C11-3).
Binder B1 has an expected percent binding of 10.9%.
B2 gave an expected percent binding of 9.4%.
With B3 the expected percent binding was ≤ 1%.
B4 showed an expected percent binding of 14.1%.
In the case of B5, the expected percent binding is reported as ≤ 1%.
With B6 the expected percent binding was ≤ 1%.
In the case of B7, the expected percent binding is reported as ≤ 1%.
Binder B8 has an expected percent binding of 4.6%.
B9 was tested, and the expected percent binding was 11.9%.
In the case of B10, the expected percent binding is reported as 10.6%.
B11 showed an expected percent binding of 17.7%.
For B12, the expected percent binding was 11.5%.
For B13, the expected percent binding was 16.6%.
B14 gave an expected percent binding of 15.9%.
In the case of B15, the expected percent binding is reported as 19.4%.
Binder B16 has an expected percent binding of 17.2%.
B17 gave an expected percent binding of 15.6%.

These binders were tested against T2, HCV Core 134-171-TT Peptide (hepatitis C virus (HCV-1 numbering) …) (assay: SPR, captured mAb, peptide analyte).
T2 construct: also called ALRZ-9 peptide
With B1 the Kd was 15 nM, the koff was 0.014 s⁻¹ and the kon was 1e+06 M⁻¹ s⁻¹.
In the case of B2, the Kd is reported as 2.2 nM, the koff is reported as 0.0024 s⁻¹ and the kon is reported as 1.1e+06 M⁻¹ s⁻¹.
B3 was tested, and the Kd was < 0.032 nM, the koff was < 1e-05 s⁻¹ and the kon was 310000 M⁻¹ s⁻¹.
B4 was tested, and the Kd was 0.2 nM, the koff was 0.00053 s⁻¹ and the kon was 2.7e+06 M⁻¹ s⁻¹.
Work on B5 yielded a Kd of 2.1 nM, a koff of 3.8e-05 s⁻¹ and a kon of 18000 M⁻¹ s⁻¹.
Binder B6 has a Kd of 0.52 nM, a koff of 5.4e-05 s⁻¹ and a kon of 100000 M⁻¹ s⁻¹.
B7 was tested, and the Kd was 96 nM, the koff was 0.00025 s⁻¹ and the kon was 2200 M⁻¹ s⁻¹.
Work on B8 yielded a Kd of 0.45 nM, a koff of 0.00065 s⁻¹ and a kon of 1.4e+06 M⁻¹ s⁻¹.
For B9, the Kd was 0.16 nM, the koff was 0.00054 s⁻¹ and the kon was 3.4e+06 M⁻¹ s⁻¹.
For B10, the Kd was 0.23 nM, the koff was 0.00026 s⁻¹ and the kon was 1.1e+06 M⁻¹ s⁻¹.
Binder B11 has a Kd of 0.091 nM, a koff of 0.00021 s⁻¹ and a kon of 2.4e+06 M⁻¹ s⁻¹.
Work on B12 yielded a Kd of 0.4 nM, a koff of 0.0006 s⁻¹ and a kon of 1.5e+06 M⁻¹ s⁻¹.
With B13 the Kd was 0.58 nM, the koff was 0.00065 s⁻¹ and the kon was 1.1e+06 M⁻¹ s⁻¹.
B14 gave a Kd of 0.43 nM, a koff of 0.00037 s⁻¹ and a kon of 870000 M⁻¹ s⁻¹.
For B15, the Kd was 0.41 nM, the koff was 0.00069 s⁻¹ and the kon was 1.7e+06 M⁻¹ s⁻¹.
For B16, the Kd was 0.34 nM, the koff was 0.00057 s⁻¹ and the kon was 1.7e+06 M⁻¹ s⁻¹.
B17 gave a Kd of 0.31 nM, a koff of 0.00035 s⁻¹ and a kon of 1.1e+06 M⁻¹ s⁻¹.

What follows are binders tested against T1, HCV Core1-169 (assay: SPR sandwich, capture mAb C11-7).
In the case of B1, the expected percent binding is reported as 14.3%.
B2 was tested, and the expected percent binding was 12.1%.
B3 was tested, and the expected percent binding was ≤ 1%.
B4 showed an expected percent binding of 16.9%.
With B5 the expected percent binding was ≤ 1%.
With B6 the expected percent binding was ≤ 1%.
With B7 the expected percent binding was ≤ 1%.
In the case of B8, the expected percent binding is reported as 7%.
Work on B9 yielded an expected percent binding of 14.7%.
Work on B10 yielded an expected percent binding of 15.5%.
For B11, the expected percent binding was 21.4%.
In the case of B12, the expected percent binding is reported as 15.3%.
B13 was tested, and the expected percent binding was 20.1%.
B14 was tested, and the expected percent binding was 19.3%.
B15 was tested, and the expected percent binding was 22.7%.
B16 was tested, and the expected percent binding was 20.6%.
B17 was tested, and the expected percent binding was 18.8%.

These binders were tested against T1, HCV Core1-169 (assay: SPR sandwich, capture mAb C11-9).
B1 was tested, and the expected percent binding was 7.1%.
With B2 the expected percent binding was 5.9%.
In the case of B3, the expected percent binding is reported as ≤ 1%.
B4 gave an expected percent binding of 9.2%.
With B5 the expected percent binding was ≤ 1%.
With B6 the expected percent binding was ≤ 1%.
With B7 the expected percent binding was ≤ 1%.
Binder B8 has an expected percent binding of 3.3%.
For B9, the expected percent binding was 7.9%.
B10 was tested, and the expected percent binding was 8.3%.
B11 showed an expected percent binding of 13.3%.
B12 gave an expected percent binding of 8.3%.
Binder B13 has an expected percent binding of 12.3%.
B14 showed an expected percent binding of 11.9%.
For B15, the expected percent binding was 14.2%.
B16 showed an expected percent binding of 10.3%.
Binder B17 has an expected percent binding of 10.7%.
